US20220387586A1 (Hoffmann-La Roche, published 2022)
Each block holds one binder with its values, some of them ahead of it.

Target: T1, human Fc tagged human Lag3 extra cellular domain (human, UniProt P18627 29-450, biotinylated in the epitope binning, the SA CAP SPR and the FACS competition assay)
T1 construct: In-house fusion; also called huLag3-Fc; biotinylated, huFc-tagged huLag3; not shown: human Fc tag
T1 sequence: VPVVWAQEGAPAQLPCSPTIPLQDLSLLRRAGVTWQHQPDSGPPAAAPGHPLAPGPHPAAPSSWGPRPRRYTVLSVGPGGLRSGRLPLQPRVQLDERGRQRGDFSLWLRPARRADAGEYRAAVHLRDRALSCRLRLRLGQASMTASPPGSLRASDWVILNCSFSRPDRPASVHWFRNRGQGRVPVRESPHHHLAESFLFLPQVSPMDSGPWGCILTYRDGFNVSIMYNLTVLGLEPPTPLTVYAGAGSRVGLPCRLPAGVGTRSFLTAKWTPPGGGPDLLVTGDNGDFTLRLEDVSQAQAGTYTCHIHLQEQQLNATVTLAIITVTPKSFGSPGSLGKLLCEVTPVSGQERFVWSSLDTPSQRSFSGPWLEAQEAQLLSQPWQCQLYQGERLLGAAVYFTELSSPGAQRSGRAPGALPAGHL
Test: SPR (Biacore T200), huLag3-Fc captured, antibody Fab fragment as analyte, 25 °C
Experimental: Therefore two flow cells of a C1 biosensor chip were prepared in a Biacore T200 by immobilizing neutravidin, diluted to 25 μg/ml in acetate buffer pH 4.5, onto it using the ‘immobilization wizard’. […] Then, CaptureSelect™ Biotin Anti-IgG-Fc (Human) Conjugate was bound to the neutravidin, using a 20 μg/ml dilution in running buffer (HBS-EP+, GE Healthcare).
The method itself consisted of four commands per cycle. […] Second command: sample injection for 120s followed by a 1200s long dissociation at a flow speed of 30 μl/min. Third and fourth command: regeneration by injecting Glycine-HCl pH 1.5 for 30 seconds.

koff: 3.87e-05 s⁻¹
B1: aLAG3(0411) Fab fragment (Fab, V domains shown)
VH: EVHLLESGGGLVQPGGSLRLSCAASGFIVDDYTMNWVRQAPGKGLEWVSVISWDGGATYYADSVKGRFTISRDDFKNTLYLQMNSLRAEDTAVYYCAKGLTDDTLYGSDYWGQGTLVTVSS
VL: DIQMTQSPSSLSASVGDRVTITCRASQSIVSYLNWYQQKPGKAPKLLIYASSSLQSGVPSRFSGSGSGTDFTLTISSLQPEDFATYYCQQTYSTPLTFGGGTKVEIK
notes: also called aLAG3 (411)

koff: 0.000399 s⁻¹
B2: MDX-26H10 (26H10) Fab fragment (Fab, V domains shown)
VH: QVQLVESGGGVVQPGRSLRLSCAASGFTFSSYGMHWVRQAPGKGLEWVAVIWYDGSNKYYADSVKGRFTISRDNSKNTLYLQMNSLRAEDTAVYYCAREWAVASWDYGMDVWGQGTTVTVSS
VL: not shown

koff: 5e-06 s⁻¹
B3: aLAG3(0403) Fab fragment (Fab, V domains shown)
VH: EVQLLESGGGLVQPGGSLRLSCAASGFTFDDYTMHWVRQAPGKGLEWVSLVSWDGGGTYYTNSVKGRFTISRDNSKNTLYLQMNSLRAEDTAVYFCAKAITDTSLYGYDYWGQGILVTVSS
VL: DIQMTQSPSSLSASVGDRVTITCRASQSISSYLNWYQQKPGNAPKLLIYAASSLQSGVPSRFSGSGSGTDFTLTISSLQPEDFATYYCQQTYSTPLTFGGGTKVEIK

koff: 9.48e-05 s⁻¹
B4: aLAG3(0417) Fab fragment (Fab, V domains shown)
VH: EVQLVESGGGLVQPGGSLRLACAASGFTFSDYAMSWVRQAPGKGLEWVSGIDNSGYYTYYTDSVKGRFTISRDDVKNTLYLQMNSLRAEDTAVYLCTKTHSGLIVNDAFDIWGQGTMVTVSS
VL: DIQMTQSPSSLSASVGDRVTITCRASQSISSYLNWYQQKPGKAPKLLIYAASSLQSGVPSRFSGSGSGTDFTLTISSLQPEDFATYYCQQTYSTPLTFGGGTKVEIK
notes: also called aLAG3 (417)

koff: 0.000386 s⁻¹
B5: MDX-25F7 (25F7) Fab fragment (Fab, V domains shown)
VH: QVQLQQWGAGLLKPSETLSLTCAVYGGSFSDYYWNWIRQPPGKGLEWIGEINHNGNTNSNPSLKSRVTLSLDTSKNQFSLKLRSVTAADTAVYYCAFGYSDYEYNWFDPWGQGTLVTVSS
VL: EIVLTQSPATLSLSPGERATLSCRASQSISSYLAWYQQKPGQAPRLLIYDASNRATGIPARFSGSGSGTDFTLTISSLEPEDFAVYYCQQRSNWPLTFGQGTNLEIK
